Source: publication PMC9371702 (Proceedings of the National Academy of Sciences of the …, 2022)

Target: human CTLA-4 (as crystallised with 4003-1 (VH)) (human, UniProt P16410)
Assay: crystal structure

human CTLA-4 (as crystallised with 4003-1 (VH)), sequence (P16410 36-154): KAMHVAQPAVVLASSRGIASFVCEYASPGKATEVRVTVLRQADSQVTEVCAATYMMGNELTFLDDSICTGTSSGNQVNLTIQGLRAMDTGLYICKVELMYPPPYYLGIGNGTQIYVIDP

- binding result: binds
B1: 4003-1 (VH) (VHH)
VHH: EVQLVESGGGLIQPGGSLRLSCAVSGFTVSKNYMSWVRQAPGKGLEWVSVVYSGGSKTYADSVKGRFTISRDNSKNTLYLQMNSLRAEDTAVYYCARAVPHSPSSFDIWGQGTMVTVSS
